Test results published in patent publication CN114395035A (JIANGSU MICKEE MEDICAL TECH CO LTD; INST OF MICROBIOLOGY OF …, dated 2022).

Experiments:
[1] = target: T1, SARS-CoV-2 Alpha variant RBD蛋白 (SARS-CoV-2, UniProt P0DTC2 319-541); test: SPR (Biacore 8K)
T1 construct: domain: RBD

[2] = target: SARS-CoV-2 Beta variant RBD蛋白 (Beta型新型冠状病毒刺突蛋白受体结合域段RBD蛋白) (SARS-CoV-2, UniProt P0DTC2 319-541); test: SPR (Biacore 8K)
[3] = target: SARS-CoV-2 Omicron variant RBD蛋白 (Omicron新型冠状病毒RBD蛋白) (SARS-CoV-2, UniProt P0DTC2 319-541); test: SPR (Biacore 8K)
[4] = target: T2, SARS-CoV-2 Delta variant RBD蛋白 (SARS-CoV-2, UniProt P0DTC2 319-541); test: SPR (Biacore 8K)
T2 construct: domain: RBD

Omicron BA.2-RBD = target: T3, Omicron BA.2-RBD (SARS-CoV-2, UniProt P0DTC2 319-541); test: lateral-flow sandwich, gold-labelled IMCAS-364 as detector (Table 4)
T3 construct: domain: RBD

Omicron BA.1-RBD = target: T4, Omicron BA.1-RBD (SARS-CoV-2, UniProt P0DTC2 319-541); test: lateral-flow sandwich, gold-labelled IMCAS-364 as detector (Table 5)
T4 construct: domain: RBD

B1: IMCAS-364抗体 (全抗IgG1) (antibody, V domains shown)
VH: QVQLQESGGGVVQPGRSLRLSCAASGFTFSRYGMHWVRQAPGKGLEWVAVIWYDGSNKYYADSVKGRFTISRDNSKNTLYLQMNSLRADDTAVYYCAKQEGTYCSGGSCYSGLDYWGQGTLVTVSS
VL: not shown
notes: also called 金标抗体 (胶体金标记)
[1]
  Kd: 1.06 nM
[2]
  Kd: 1.07 nM
[3]
  Kd: 2.19 nM

B2: IMCAS-123抗体 (全抗IgG1) (antibody, V domains shown)
VH: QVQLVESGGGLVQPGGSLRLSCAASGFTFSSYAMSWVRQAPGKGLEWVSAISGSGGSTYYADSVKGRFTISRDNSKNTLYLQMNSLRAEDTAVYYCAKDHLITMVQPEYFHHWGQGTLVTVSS
VL: DIQMTQSPSSVSASVGDSVTITCRASQGISRWLAWYQQRPGKAPKLLIYAAGNLETGVPSRFSGSGSGTDFTLTISDLQAEDFATYYCQQADSFPLTFGGGTKVDIKR
notes: also called T1线抗体
[1]
  Kd: 0.15 nM
[2]
  Kd: 0.32 nM
[4]
  Kd: 0.48 nM
[3]
  Kd: 1.41 nM

B3: IMCAS-72抗体 (全抗IgG1) (antibody, V domains shown)
VH: QVQLVESGGGLVQPGGSLRLSCAASGFTFSSYGMHWVRQAPGKGLEWVAVISYDGSDKYYADSVKGRFTISRDNSKNTLYLQMNSLRAEDTAVYYCARDRDRFGDQGGWFDPWGQGTLVTVSS
VL: not shown
notes: also called T2线抗体
[4]
  Kd: 0.62 nM
Omicron BA.2-RBD
  binding result: no binding (tested: IMCAS-72 0.8mg/mL on the T2 line)
Omicron BA.1-RBD
  binding result: no binding (tested: IMCAS-72 2mg/mL on the T2 line)
